{"source": "paper PMC3619014", "about": "(Molecular pharmaceutics, 2012)", "binders": {"B1": {"name": "NOTA-K3-VEGF121 (ligand)", "chain": "KKKAPMAEGGGQNHHEVVKFMDVYQRSYCHPIETLVDIFQEYPDEIEYIFKPSCVPLMRCGGCCNDEGLECVPTEESNITMQIMRIKPHQGQHIGEMSFLQHNKCECRPKKDRARQEKCDKPRR", "modifications": "NOTA (from p-SCN-Bn-NOTA) on lysine residues, estimated 1~2 NOTA residues in each NOTA-K3-VEGF121; positions not determined"}}, "molecular_target": "human KDR (VEGFR-2) expressed on porcine aortic endothelial cells (PAE/KDR) (human, UniProt P35968 20-1356)", "sequence (P35968 20-1356)": "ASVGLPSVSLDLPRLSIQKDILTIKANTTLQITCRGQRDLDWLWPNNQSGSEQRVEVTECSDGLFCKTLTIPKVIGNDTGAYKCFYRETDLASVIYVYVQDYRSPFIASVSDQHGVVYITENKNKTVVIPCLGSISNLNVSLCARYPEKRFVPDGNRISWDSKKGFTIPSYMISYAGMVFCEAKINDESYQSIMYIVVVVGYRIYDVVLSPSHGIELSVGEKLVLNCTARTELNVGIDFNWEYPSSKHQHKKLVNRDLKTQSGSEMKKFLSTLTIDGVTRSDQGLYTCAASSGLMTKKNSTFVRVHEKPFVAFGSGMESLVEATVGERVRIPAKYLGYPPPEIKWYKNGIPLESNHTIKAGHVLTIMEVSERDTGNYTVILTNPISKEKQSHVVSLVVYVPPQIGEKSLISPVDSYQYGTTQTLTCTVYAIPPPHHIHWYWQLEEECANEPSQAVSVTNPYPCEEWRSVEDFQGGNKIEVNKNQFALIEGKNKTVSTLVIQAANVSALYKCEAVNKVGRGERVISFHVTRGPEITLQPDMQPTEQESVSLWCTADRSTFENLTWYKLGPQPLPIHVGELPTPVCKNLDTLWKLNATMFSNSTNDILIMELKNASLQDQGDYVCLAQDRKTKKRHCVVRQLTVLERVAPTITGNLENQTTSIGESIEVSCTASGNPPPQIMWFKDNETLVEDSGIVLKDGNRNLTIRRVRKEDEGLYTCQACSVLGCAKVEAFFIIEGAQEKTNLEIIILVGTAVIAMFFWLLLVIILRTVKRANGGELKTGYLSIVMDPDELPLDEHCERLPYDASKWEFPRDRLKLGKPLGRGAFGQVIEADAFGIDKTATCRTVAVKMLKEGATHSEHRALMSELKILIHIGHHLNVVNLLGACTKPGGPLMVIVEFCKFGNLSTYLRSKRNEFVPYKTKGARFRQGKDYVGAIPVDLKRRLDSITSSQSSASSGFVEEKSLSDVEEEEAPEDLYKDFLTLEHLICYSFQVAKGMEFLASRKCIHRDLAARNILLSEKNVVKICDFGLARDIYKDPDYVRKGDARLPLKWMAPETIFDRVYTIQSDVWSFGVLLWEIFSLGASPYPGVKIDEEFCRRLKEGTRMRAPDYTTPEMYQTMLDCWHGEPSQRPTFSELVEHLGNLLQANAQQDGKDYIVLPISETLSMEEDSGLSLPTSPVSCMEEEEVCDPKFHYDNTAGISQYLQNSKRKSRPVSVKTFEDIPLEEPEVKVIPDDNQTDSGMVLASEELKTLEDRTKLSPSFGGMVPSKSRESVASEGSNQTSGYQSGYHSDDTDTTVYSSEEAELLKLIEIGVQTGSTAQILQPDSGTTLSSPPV", "assay": "radioligand binding"}
{"binder": "B1", "values": [{"measurement": "IC50", "result": 1.5, "unit": "nM"}]}
